Assay results published in PMC6796840, “An H3K27me3 demethylase-HSFA2 regulatory loop orchestrates transgenerational thermomemory in Arabidopsis”.

B1: BRM-HSE-P3 (dsDNA)
DNA 1: AGCCAGTGGCGATAAGATTTTTATTTTTCGAGAAGCCATCTCACTTATCGCCACTGGCT
DNA 2: AGCCAGTGGCGATAAGTGAGATGGCTTCTCGAAAAATAAAAATCTTATCGCCACTGGCT
B2: BRM-HSE-P1 (dsDNA)
DNA 1: AGCCAGTGGCGATAAGAACAAATTTATTCAGGAATCAGAAACACTTATCGCCACTGGCT
DNA 2: AGCCAGTGGCGATAAGTGTTTCTGATTCCTGAATAAATTTGTTCTTATCGCCACTGGCT
B3: BRM-HSE-P2 (dsDNA)
DNA 1: AGCCAGTGGCGATAAGTTTTACTTGTTTCGGGAAAAAAAACTACTTATCGCCACTGGCT
DNA 2: AGCCAGTGGCGATAAGTAGTTTTTTTTCCCGAAACAAGTAAAACTTATCGCCACTGGCT
B4: REF6-HSE-P1 (dsDNA)
DNA 1: AGCCAGTGGCGATAAGCTACTAATTTCATGAACTACCAAAGACTCTTATCGCCACTGGCT
DNA 2: AGCCAGTGGCGATAAGAGTCTTTGGTAGTTCATGAAATTAGTAGCTTATCGCCACTGGCT
B5: SGIP1-HSE-P4 (dsDNA)
DNA 1: AGCCAGTGGCGATAAGCTCTGAAAAGTTTCTGTCGAAGTCTTATCGCCACTGGCT
DNA 2: AGCCAGTGGCGATAAGACTTCGACAGAAACTTTTCAGAGCTTATCGCCACTGGCT

Target: His-HSFA2 (Arabidopsis thaliana, UniProt O80982 1-345)
Sequence (O80982 whole entry): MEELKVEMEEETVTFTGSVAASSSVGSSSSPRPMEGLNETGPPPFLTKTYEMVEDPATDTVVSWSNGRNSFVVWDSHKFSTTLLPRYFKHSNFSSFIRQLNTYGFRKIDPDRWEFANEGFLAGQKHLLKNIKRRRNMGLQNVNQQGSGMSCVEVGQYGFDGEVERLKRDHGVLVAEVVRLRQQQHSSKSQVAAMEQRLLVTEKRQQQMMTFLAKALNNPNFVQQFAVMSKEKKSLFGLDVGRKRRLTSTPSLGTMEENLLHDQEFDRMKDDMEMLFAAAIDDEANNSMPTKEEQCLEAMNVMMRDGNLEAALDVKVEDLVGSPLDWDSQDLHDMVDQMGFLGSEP
Test: EMSA; HSFA2: 10 mM Tris-HCl pH 7.6, 25 mM KCl, 2.5 mM MgCl2, 1 mM EDTA, 1 mM DTT, 10% glycerol, 25 C 30 min; REF6C: 25 mM Tris-HCl pH 8.0, 100 mM NaCl, 2.5 mM MgCl2
Settings: protein: recombinant; tags: His (pET32a in Methods); chain copies: 3; label: Cy5 end

Binder	binding result
B1	binds
B2	binds
B3	binds
B4	binds
B5	binds
